Test results from patent US20220213181A1 (Novartis, published 2022).

Experiments:
[1] = target: T1, Human ANGPTL4(26-406)-FLAG-His6-Avi (human, UniProt Q9BY76 24-406, biotin on the C-terminal Avi tag (BirA) where the protein is immobilised); assay: Octet (ForteBio) kinetics, biotinylated antigen on streptavidin sensor, IgG in solution; slower than the limit of detection
T1 construct: the text calls it 20 amino acids), then QP, ANGPTL4 26-406 and FLAG-His6-Avi; the signal peptide is left out here; also called full length human ANGPTL4; hANGPTL4
T1 sequence: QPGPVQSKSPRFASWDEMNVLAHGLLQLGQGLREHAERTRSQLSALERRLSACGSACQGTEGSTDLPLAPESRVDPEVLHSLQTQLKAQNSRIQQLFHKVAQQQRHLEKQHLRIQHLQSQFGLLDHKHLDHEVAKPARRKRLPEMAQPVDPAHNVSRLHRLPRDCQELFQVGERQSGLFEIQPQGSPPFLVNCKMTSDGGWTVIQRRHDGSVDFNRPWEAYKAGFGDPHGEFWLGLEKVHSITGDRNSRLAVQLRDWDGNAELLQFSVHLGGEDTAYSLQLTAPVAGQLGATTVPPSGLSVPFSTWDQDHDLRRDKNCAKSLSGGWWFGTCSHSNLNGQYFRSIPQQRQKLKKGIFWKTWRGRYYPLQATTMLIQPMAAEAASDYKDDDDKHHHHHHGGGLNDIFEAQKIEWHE

[2] = target: T2, Cynomolgus monkey ANGPTL4(26-406)-FLAG-His6-Avi (cynomolgus monkey, biotin on the C-terminal Avi tag (BirA) where the protein is immobilised); assay: as above
T2 construct: also called Cyno ANGPTL4 (26-406)
T2 chain: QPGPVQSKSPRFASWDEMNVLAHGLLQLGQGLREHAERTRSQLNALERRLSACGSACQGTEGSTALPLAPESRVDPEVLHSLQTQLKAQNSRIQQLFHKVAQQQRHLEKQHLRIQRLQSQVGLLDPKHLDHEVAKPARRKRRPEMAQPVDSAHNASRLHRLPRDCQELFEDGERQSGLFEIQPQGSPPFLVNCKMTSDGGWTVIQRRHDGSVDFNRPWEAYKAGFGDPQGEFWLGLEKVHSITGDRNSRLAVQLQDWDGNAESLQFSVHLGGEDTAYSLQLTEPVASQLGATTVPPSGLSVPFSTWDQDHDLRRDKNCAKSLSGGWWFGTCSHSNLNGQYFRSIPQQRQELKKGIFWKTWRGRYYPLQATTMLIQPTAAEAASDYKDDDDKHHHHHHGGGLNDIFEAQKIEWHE

[3] = target: T3, Human ANGPTL4(26-161)-FLAG-His6-Avi (human, biotin on the C-terminal Avi tag (BirA) where the protein is immobilised); assay: as above
T3 construct: also called human ANGPTL4 N-terminal coiled coil domain; hANGPTL4-CCD
T3 chain: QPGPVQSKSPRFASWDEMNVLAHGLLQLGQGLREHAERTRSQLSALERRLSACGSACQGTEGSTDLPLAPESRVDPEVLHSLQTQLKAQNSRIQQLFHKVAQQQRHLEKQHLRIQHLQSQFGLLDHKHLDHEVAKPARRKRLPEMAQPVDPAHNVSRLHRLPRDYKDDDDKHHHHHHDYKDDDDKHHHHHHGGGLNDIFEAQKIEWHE

[4] = target: T4, Rat ANGPTL4(24-405)-FLAG-His6-Avi (rat, UniProt Q6TMA8 24-405, biotin on the C-terminal Avi tag (BirA) where the protein is immobilised); assay: Octet (ForteBio) kinetics, biotinylated antigen on streptavidin sensor, IgG in solution; Octet kinetics, rat ANGPTL4 on the sensor, antibody up to 25 nM; run 1
T4 sequence: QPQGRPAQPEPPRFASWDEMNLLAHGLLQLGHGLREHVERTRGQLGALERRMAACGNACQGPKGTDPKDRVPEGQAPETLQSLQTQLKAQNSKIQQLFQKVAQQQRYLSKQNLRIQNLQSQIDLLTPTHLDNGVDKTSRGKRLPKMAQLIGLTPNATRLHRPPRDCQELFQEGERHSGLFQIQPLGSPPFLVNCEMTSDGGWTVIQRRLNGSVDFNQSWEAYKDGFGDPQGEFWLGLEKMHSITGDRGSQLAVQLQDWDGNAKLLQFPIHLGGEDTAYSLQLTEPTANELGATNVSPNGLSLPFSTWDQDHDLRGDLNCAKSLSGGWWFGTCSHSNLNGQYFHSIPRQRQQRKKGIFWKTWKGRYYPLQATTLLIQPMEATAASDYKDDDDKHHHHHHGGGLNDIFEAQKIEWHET

[5] = target: T4, Rat ANGPTL4(24-405)-FLAG-His6-Avi; assay: Octet (ForteBio) kinetics; average KD of the runs; Octet kinetics; average KD of the three rat runs
[6] = target: T4, Rat ANGPTL4(24-405)-FLAG-His6-Avi; assay: Octet (ForteBio) kinetics, biotinylated antigen on streptavidin sensor, IgG in solution; Octet kinetics; run 3 on rat ANGPTL4

- koff [1]: 4.9e-07 s⁻¹
- koff [2]: 4.1e-06 s⁻¹
- koff [3]: 3.1e-06 s⁻¹
- Kd [4]: 7.47 nM
- koff [4]: 0.0012 s⁻¹
- kon [4]: 160000 M⁻¹ s⁻¹
- Kd [5]: 6.34 nM
- Kd [6]: 5.53 nM
- koff [6]: 0.00028 s⁻¹
- kon [6]: 52000 M⁻¹ s⁻¹
B1: NEG276-LALA (antibody, human IgG1, kappa, L234A L235A)
heavy: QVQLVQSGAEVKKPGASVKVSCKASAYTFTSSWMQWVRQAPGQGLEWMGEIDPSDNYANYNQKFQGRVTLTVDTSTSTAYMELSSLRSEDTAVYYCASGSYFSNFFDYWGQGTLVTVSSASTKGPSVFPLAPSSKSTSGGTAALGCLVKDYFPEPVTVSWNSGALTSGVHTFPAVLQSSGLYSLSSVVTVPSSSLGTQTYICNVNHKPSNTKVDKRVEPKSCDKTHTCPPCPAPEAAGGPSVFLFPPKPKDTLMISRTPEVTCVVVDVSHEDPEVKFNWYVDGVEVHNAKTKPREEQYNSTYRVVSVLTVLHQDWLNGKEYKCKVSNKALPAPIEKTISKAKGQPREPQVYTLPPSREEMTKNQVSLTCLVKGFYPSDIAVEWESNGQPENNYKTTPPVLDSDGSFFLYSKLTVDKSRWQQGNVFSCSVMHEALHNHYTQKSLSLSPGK
light: EIVMTQSPATLSVSPGERATLSCKASQDIGSNLNWLQQKPGQAPRRLIYAVSNRGPGIPARFSGSRSGSEYTLTISSLQSEDFAVYYCLQYASSPWTFGQGTKVEIKRTVAAPSVFIFPPSDEQLKSGTASVVCLLNNFYPREAKVQWKVDNALQSGNSQESVTEQDSKDSTYSLSSTLTLSKADYEKHKVYACEVTHQGLSSPVTKSFNRGEC
